Results published in patent publication US20090074762A1.

Biological target: T1, TweakR on cells (TweakR-expressing cells, TweakR transfectant cell line, A375 melanoma cells, tumor tissue) (human) (UniProt Q9NP84)
T1 sequence: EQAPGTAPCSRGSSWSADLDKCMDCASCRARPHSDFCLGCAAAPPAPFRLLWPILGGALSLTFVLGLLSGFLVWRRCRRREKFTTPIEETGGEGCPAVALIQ
Assay: cell-based or functional assay

anti-TweakR antibody ITEM2
agonist activity (IL-8 release assay): 28%
